Test results from the nanobody polyreactivity screen of Harvey et al. (2022).

Experiment: yeast display, Sf9 membrane polyspecificity reagent, FACS + sequencing; frameworks hold sequencing errors
Procedure, shortened: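 After 36–48 hours of galactose induction, yeast (Saccharomyces cerevisiae BJ5465) displaying a synthetic nanobody library were stained at 4 °C for 1 hour with 10% biotinylated, detergent-solubilized Sf9 membrane reagent. Streptavidin microbeads enriched the stained cells before FACS sorting into low and high (top ~1%) gates on anti-HA and streptavidin fluorescence. Each clone's polyreactivity label reflects its gate of origin.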

| Sequence | polyreactivity (PSR sort gate) |
| --- | --- |
| QVQLVESGGGLVQAGGSLRLSCAASGRTFLRYAMGWYRQAPGKEREFVAAISYSGSRTYYADSVKGRFTISRDTAKKTVYLQMNSLKPEDTAVYYCATDSDARVELAGYDYWGQGTQVTVSS | high polyreactivity |
| QVQLVESGGGLVQAGGSLRLSCAASGSTFQWYAMGWYRQAPGKERELVAAISNGVSTNYADSVKGRFTISRDNAKNTVYLHMNSLKPEDTAVYYCAADAYPYYQSYYPFEYLGQGTQVTVSS | low polyreactivity |
| QVLLVESGGGLVQAGGILRLSCAASGNILGYNAMGWSRQAPGKERELVAAISWIGGSTYYADSVKGRFTISRDNAKNTVYLQMNSLKQEDTAVYYCASRYRTYFTYEYWGQVTQVTVSS | low polyreactivity |
| QVQLVESGGGLVQAGGSLRLSCAASGRIFNKNAMGWYRQAPGKERELVAAITYSGGSTYYADSVKGRFTISRDNAKNTVYLQMNSLKPEDTAVYYSARDLYYVYSFAPYRYEYWGQGTQVTVSS | low polyreactivity |
| QVQLVESGGGLVQAGGSLRLSCAPSGYIFPFNALGGYRQAPGKERELVAAINNGGRTYYADSVKGRFTISRDNAKNTVFLQMHSLKPEDTAVDSCAAGSKSDMDWGQGTQVTVSS | low polyreactivity |
| QDQLVESGGGLFQAGGSLRLSCAASGGIFGFYAMGWSRKAPGKERELVAAISWGGGSTYYADSVKGRFTISRDNAKNTVYLQMNSLKPEDTAFYYCAADPALTIEYGYWGQVTQVTVSS | low polyreactivity |
| QVQLVESGGGLVQAGGSLRLSCAASGSIFGLYAMGWYRQAPGKERELVAAISASGGSTYYADSVKGRFTISRDNAKNTVYLQMNSLKPEDTAVYYCAKKQRYYGRMDYWGQGTQVTVSS | high polyreactivity |
| QVQLVESGGGLVQAGGSLRLSCAASGRIFGGYAMGWYRQAPGKEWEVVAAIRDSGRTYYADSVKGRFTISRDNAKNTVYLQMNSLKPEDTAVYYCAADAHSSYSPFRWYDYWGQGTQVTVSS | low polyreactivity |
| QVQLVESGGGLVQAGGSLRLSCAASGFIFVYYAMGWYRQAPGKERELVAAISSRGGSTYYADSVKRRFTISRDNAKNTVYLQMNSLKPEDTAVYYCAARPSSRRYGTIMDYWGQGTQVTVSS | high polyreactivity |
| QVQLVESGGGLVQAGGSLRLSCAASGRIFPYNVMGWYRQAPGKERELVAAISSGGTTDYADSVKGRFTISRDNAKNTVYLQMNSLKPEDTAVYYCAATYVYWTWGYDYWGQGTQVTVSS | low polyreactivity |
| QVQLVESGGGLVQAGGSLRLSCAASGSTFHYYAMGWYRQEPGKERELVAAISGSGSSTYYADSVKGRFTISRDNAKNTVYLQMNSLKPEDTAVYYCNARGHYPRARFGYKSGSDRYWGQGTQVTVSS | high polyreactivity |
| QVQLVESGGGLVQAGGSLRLSCAASGSTFYKNAMGWNRQAPGKERELVASISRSGGSTSYADSVKGRFTISRDNAKNTVYLQMNSLKPEDTAVYYCAATWRQHPGSMGYWGQGTQVTVSS | high polyreactivity |
| QVQLVESGGGLVQAGGSLRLSCAASGRTFSTYTMGWYRPAPGNERELVAAINWSGTSTYYADSVKGRFTISRDTAKNTVYLQMNSLKPEDTAFYYCNAGKWAYRWGYELNYWGQGTQVTVSS | high polyreactivity |
| QVQLVESGGGLVQAGGSLRLSCAASGSIFVGYAMGWYRQAPGKERELVAAITGSGTRTYYADSVKGRFTISRDNAKNTVFLQMNSLKPEDTAVYYCAAPLSYKNVKYDYWGQGTQVTVSS | low polyreactivity |
| QVQLVESGGGLVQAGGSLRLSCAASGITFDKYAMGWYRQAPGKERQLVAAISGSDGSTYYADSVKGRFTITRDNAKNTVYLQMNSLKPEDTAVYYCAAESEYAGTYEYDYWGQGSQVTVSS | low polyreactivity |
| QVQLAESGGGLVQAGGSLRLSCAASGRIFYGYTMGWYRQAPGKERELVAAITWSGGSTYYADSVKGRFTISRDNAKNTVYLQMNSLKPKDTAVYYCAATLGNAADYDYGYWGQGTQVTVSS | high polyreactivity |
| QVQLVESGGGLVQAGGSLSLSCAASGRTFSGNAMGWYRQAPGKERELVAAINWRGGRTYYADSVKGRFTISRDNAKNTVYLQMNSLKPEDTAVYYCAAVYVFHRYIYSLYDYWGQGTQVTVSS | high polyreactivity |
| QVQLVESGGGLVQAGGSLRLSCAASGLIFSSYAMGWYRQAPGQERELVAAITGSGGRTYYADSVKGRFTISRDNAKNTVYLQMNSLKPEDTAVYYWNRRSRRQGGYWGQGTHVTVSS | high polyreactivity |
| QVQLVESGGGLVQAGGSLRLSCAASGFTFKFYAMGWYRQAPGKEMEFVAAISGSGGSTYYADSVKRRFTISRDNAKNTVYLQMNSLKPEDTAVYYCAAEVPGKPYRRSRYSFRHDYWGQGTQVTVSS | low polyreactivity |
| QVQLVESGGALVQAGGSLRLSCAASGISFSWYAMGWYRQAPGKEREFVAAISRGGTSTYYADSVKGRLTISRDNAKNTVYLQMNSLKPEDTAVSYCAVQWLYPYDYWGQGTQVTVSS | high polyreactivity |
| QVQLEESGGGLVQAGGSLRLSCAASGRIFQRNAMGWYRQAPGKEREFVAAITKSGGGTYADSVKGRFTISRDNAKNTVYLQMNSLKAEDTAVYYCNVVPVWRPYSLINWQKDFGYWGQGTQVTVSS | high polyreactivity |
| QVQLVESGGGLVQAGGSLRLSCAASGFTFAGNTMGWYRQAPGKERELVAAINSGGSTHYADSVKGRFTISRDNAKNTVYLQMNSLKPEDTAVYYCADYLTRYGAYYWGQGTQVTVSS | high polyreactivity |

| Sequence | polyreactivity (PSR sort gate) |
| --- | --- |
| HVQRVESGGGLVQAGASLRLSCAASGGIFSYNAMGWYRQAPGKERELVAAISGTGGSTYYADSVKGRFTISRDNAMNTVYLQMNSLKPEDTAVYYCAADVEYKVFPGDYWGQGPQVTVSS | low polyreactivity |
| QVQLVESGGGFVQAGGSLRLSCAASGSIFKRYAMGWYRQAPGKEWELVARISRRGGTYYADSVKGRFTISRDNAKNTVYLQINSLKPDDTAVYYCNANVIFADNNDRDYWGQGTQVTVSS | low polyreactivity |
| QVQLQERGGGLVQAGGSLRLSCAASGNIFEADIMGWYHQAQGKDRELVASITDGGSTNYADSVKGRFTINRDNAKNKVSRQMNSLKPEDTALYYCAAYGNARLKEHYYWGQGTQVTVSS | high polyreactivity |
| QVQLVESGGGLVQAGGSLRLSSAASGSTFISYAMGRYSQAPGQDRELVAAISSGGGRTSYADSVKGRLTISRDHAKNTVYLQMNSLKPEDTAVYYCNKTPHFPRPGFNYWGQGTHVTVSS | low polyreactivity |
| QVQLVESGGGLVQAGGSLRLSCAASGSIFVYNAMGWYRQAPGKERELVAAISSSGGSTYYADSVKGRFTISRDNAKNTVYLQMNSLKPEDTAVYYCAAEAVRKVPSYYSYAYYYWGQGTQVTVSS | high polyreactivity |
| QVQLVESGGGLVQAGGSLRLSCAATGTFIIYAMGRYRQAPGKERELVATISTGGSTNYADSVKGRFTISRDNAKNTVYLQMNSLKPEDTAVYYCAAEWLYPHDGGYPRPMDYCGQGTQVTVSS | low polyreactivity |
| QVQLGESGGGLVQAGGSLRLSCAASGSTFAYNDMGWYRQAPGKEMELVADIRSGGNTKYADSVKGRFTISRDNAKNTVYFQMNSLKPEDTAVYYCATDGYRIDVYHPDYRYDYWGQGTQVTVSS | low polyreactivity |
| QLQLVESVGVLVQAGGSLRLSCAASGFIFDGYAMGWYRQAPGKERELVAAIDSGGDRTYYADSVKGRFTISRDNAKNTVYLQMNSLKPEDTAVYYCARTFRTYAPRPYQGDYWGQGTQVTVSS | low polyreactivity |
| QVQLVESGGGLVQAGGSLRLSCAASGRIFKYYAMGWYRQAPGKERELVAAISGTGGGTYYADSVKGRFTISRDNAKNTVYLQMNSLKPEDTAVYYCAALHQAYRGFDYWGQGTQVSVSS | high polyreactivity |
| QVQLVESGGRLVQAGGSLRLSCAASGRTFSVYAMGWYRQAPGKERELVAGITSGGSTNYADSVKGRFTISRDNAKNTVYLQMNSRKPEDTAVYYCAAEIVYAAFGFDSIGDYWGQGTQVTVSS | low polyreactivity |
| QVQLVESGGGLVQAGGSLRLSCAASGRIFRYYAMGWYRQAPGKERELVAAISRRGSSTYYADSVKGRFTISRDNAKNTVYLQMNSLKPEDTAVYYCSAKRQVYQSESTYEYWGQGTQVTVSS | high polyreactivity |
| QVQLVESGGGLVQAGGSLRLSCAASGRIFWDYGMGWYRQAPGKERELVAVITWGGGSTYYADSVKGRFTISRDNAKNTVYFQMNSLKPEDTAVYYCAKEYHYYYWGQGTQVTVSS | low polyreactivity |
| QVQHVESGGGLVQAGGSLRLSCAASGSTFSPNAMGWYRQAPGKERELVAAIRWRTGTTYYADSVKGRFTISRDNAKNTVYLQMNSLKPEDTAVYYCAAVYKPPNNKYGSAWEYGYWGQGTQVTVSS | high polyreactivity |
| QVQLVESGGGLVQAGGSLRLSCAASGSTFYVNAMGSYRQAPGQERELVAAIRSSAGNTTYADSVKGRFTISRDNAKNTVYLQMNSLKPEETAVYYCAADSRPYLRDYWGQGTQVTVSS | low polyreactivity |
| QVQFEESGGGLVQAGGSLRLSCAASGSTFQGYAMGWYRQAPGKERELVAAISRSGGRTYYADSVKGRFTISRDNAKNTVYLQMNSLKPEDTAVYYCAAEGHELTEGDSWGQGTQVTVSS | low polyreactivity |
| QVQLVESGGGLVKAGGSLRLSCAASGRNFNYYAMGWYTQAPGKERELVAAIRSGGSTYYADSVKGRFTISRDNAKYTVYFQMNSLKPEDTAVYYCAKSMSSDAYDSWGQGTKVTVSS | low polyreactivity |
| QVQLVESGGGLVQAGGSLRLSCAASGRIFYAYAMGWYRQAPGKEREMVAAISKGGGSTYYADSVKGRFTISRDNAKNSVYLQMNSLKPEDTAVYYCNAQQYPYHIKYDYWGQGSQVTVSS | low polyreactivity |
| QVQLVESGGGLVQAGGRLRLSCAASGSIFTYYVMGWYRQAPGKERELVAAITISGGSTYYADSVKGRFTISRDNAKNTVYLQMNRLNPEDTAVYYCAAEEVYYEADGFQNSYDYWGQGTQVTVSS | high polyreactivity |
| QVQLVESGGGLVQAGGSLRLSCAASGGTFAVYAMGWYRQAPGKERELVAAIDSGGRTNYADSVKGRFTISRDNAKNTVYLQMNSLKPEDTAVYYCAADGGGQYVRYDYWGQGTQVTVSS | high polyreactivity |
| QVQLVESGGGLVQAGGSLRLSCAASGITFYIYAMGWYRQAPGKERELVATISWSDGRTYYADSVKGRFTISRDNAKNTVYCQMNSLKPEDTAVYYCAADWWYYQFDYEYWGQGTQVTVSS | low polyreactivity |
| QVQLVESGGGLVQAGGSLRLSCAASGSIIVRYAMGWYRQAPGKERELVASISKRGGSTYYADSVKGRFTISRDNAKNTVYLQMNSLKPEDTAVYYCAARVVTRVRGVGYNYWGQGTQVTVSS | high polyreactivity |
